These results are taken from paper PMC4381075, “An intrinsically disordered region of methyl-CpG binding domain protein 2 (MBD2) recruits the histone deacetylase core of the NuRD complex”.

Data set [1] concerns the target MBD2FLsc (human) (UniProt Q9UBB5). In words: SPR. As to conditions: 5-methyl-C at position 9 of strand 1 (central CpG), complement mC at position 8 implied, not given, SPR: 10 mM HEPES pH 7.4, 50 mM NaCl, 3 mM MgCl2, 0.1 mM EDTA, 1 mM DTT, 0.05% polysorbate 20, FP: 10 mM HEPES pH 7.5, 50 or 150 mM NaCl.
The target is the same in data set [2]. Put plainly: fluorescence polarization. The conditions noted are these: 5-methyl-C at position 9 of strand 1 (central CpG), complement mC at position 8 implied, not given, SPR: 10 mM HEPES pH 7.4, 50 mM NaCl, 3 mM MgCl2, 0.1 mM EDTA, 1 mM DTT, 0.05% polysorbate 20, FP: 10 mM HEPES pH 7.5, 50 or 150 mM NaCl.
For data set [3], the target named is T1, MBD2MBD (human, UniProt Q9UBB5 150-214). Put plainly: fluorescence polarization; 50 mM NaCl; SPR: 10 mM HEPES pH 7.4, 50 mM NaCl, 3 mM MgCl2, 0.1 mM EDTA, 1 mM DTT, 0.05% polysorbate 20; FP: 10 mM HEPES pH 7.5, 50 or 150 mM NaCl, 3 mM MgCl2, 0.1 mM EDTA, 1 mM DTT, 0.02% azide; temperature not stated. As to conditions: protein: recombinant; tags: thioredoxin-His fusion (modified pET32a; tag retained); label: 3' FAM on reverse strand; blunt.

The target of data set [4] is T2, MBD2(150-260) (human, UniProt Q9UBB5 150-260). The data set is described as above. The conditions noted are these: protein: recombinant; tags: thioredoxin-His fusion (modified pET32a; tag retained); label: 3' FAM on reverse strand; blunt.
Data set [5] deals with T1, MBD2MBD. Put plainly: SPR steady state; 50 mM NaCl, 3 mM Mg2+; SPR: 10 mM HEPES pH 7.4, 50 mM NaCl, 3 mM MgCl2, 0.1 mM EDTA, 1 mM DTT, 0.05% polysorbate 20; FP: 10 mM HEPES pH 7.5, 50 or 150 mM NaCl, 3 mM MgCl2, 0.1 mM EDTA, 1 mM DTT, 0.02% azide; temperature not stated. The conditions noted are these: protein: recombinant; tags: thioredoxin-His fusion (modified pET32a; tag retained); label: 3' biotin on forward strand; blunt.

The target in data set [6] is T2, MBD2(150-260). Put plainly: SPR; 50 mM NaCl, 3 mM Mg2+; SPR: 10 mM HEPES pH 7.4, 50 mM NaCl, 3 mM MgCl2, 0.1 mM EDTA, 1 mM DTT, 0.05% polysorbate 20; FP: 10 mM HEPES pH 7.5, 50 or 150 mM NaCl, 3 mM MgCl2, 0.1 mM EDTA, 1 mM DTT, 0.02% azide; temperature not stated. As to conditions: protein: recombinant; tags: thioredoxin-His fusion (modified pET32a; tag retained); label: 3' biotin on forward strand; blunt.

Sequence of MBD2FLsc (human) (Q9UBB5 whole entry): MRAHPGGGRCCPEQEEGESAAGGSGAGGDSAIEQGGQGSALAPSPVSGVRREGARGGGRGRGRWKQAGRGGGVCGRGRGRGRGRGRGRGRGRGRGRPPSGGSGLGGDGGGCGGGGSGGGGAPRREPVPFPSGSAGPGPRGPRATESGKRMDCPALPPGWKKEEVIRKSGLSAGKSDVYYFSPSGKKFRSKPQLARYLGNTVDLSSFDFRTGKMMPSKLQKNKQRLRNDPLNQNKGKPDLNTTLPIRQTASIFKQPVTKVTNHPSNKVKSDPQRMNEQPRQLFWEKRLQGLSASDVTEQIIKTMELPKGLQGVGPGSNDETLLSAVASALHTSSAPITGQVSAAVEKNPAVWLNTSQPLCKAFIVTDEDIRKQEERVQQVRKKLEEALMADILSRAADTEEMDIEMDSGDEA
T1 sequence (Q9UBB5 150-214): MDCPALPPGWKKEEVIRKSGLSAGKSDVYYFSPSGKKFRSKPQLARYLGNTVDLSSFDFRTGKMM
T2 sequence (Q9UBB5 150-260): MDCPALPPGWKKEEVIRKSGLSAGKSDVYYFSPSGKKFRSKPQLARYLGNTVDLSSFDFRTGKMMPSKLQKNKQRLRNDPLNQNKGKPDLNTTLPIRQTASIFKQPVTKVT

The molecule “GAGGCGCTCGGCGGCAG (double strand) [17 bp central mCpG, SPR]” yielded a Kd in the data set with MBD2FLsc (human) [1] of 2 nM. As for “GAGGCGCTCGGCGGCAG (double strand) [17 bp central mCpG, FP]”, in the data set with MBD2FLsc (human) [2], the binding signal (fold affinity vs 50 mM NaCl) was 0.1 and the binding signal (fold affinity vs MBD2MBD) worked out at 100.

B1: 17 bp central mCpG, FP (dsDNA)
DNA 1: GAGGCGCTCGGCGGCAG
DNA 2: CTGCCGCCGAGCGCCTC
modifications: 5-methyl-C at position 9 of strand 1 (central CpG); complement mC at position 8 implied, not given
B1: the binding signal was ~1 fold affinity (reference) in the data set with MBD2MBD [3] and approximately 100 fold affinity vs MBD2MBD in the data set with MBD2(150-260) [4].

B2: 17 bp central mCpG, SPR (dsDNA)
DNA 1: GAGGCGCTCGGCGGCAG
DNA 2: CTGCCGCCGAGCGCCTC
modifications: 5-methyl-C at position 9 of strand 1 (central CpG); complement mC at position 8 implied, not given
For B2, the Kd in the data set with MBD2MBD [5] turned out to be 330 nM; in the data set with MBD2(150-260) [6], 20 nM.
